Where two headings read alike, the source gives them in different places.
Legend:
[1] = target: P3Z chimeric PD-1 receptor (human); experiment: cell-based or functional assay
[2] = target: T1, human PD-1 expressed on cells (human, UniProt Q15116 25-288); experiment: cell-based or functional assay
[3] = target: P3Z chimeric PD-1 receptor (human); experiment: cell-based or functional assay; remark: listed apart in the source
[4] = target: T1, human PD-1 expressed on cells; experiment: FACS on PD-1-expressing cells

P3Z chimeric PD-1 receptor (human), sequence (chain, as listed by the source mutant limits assumed): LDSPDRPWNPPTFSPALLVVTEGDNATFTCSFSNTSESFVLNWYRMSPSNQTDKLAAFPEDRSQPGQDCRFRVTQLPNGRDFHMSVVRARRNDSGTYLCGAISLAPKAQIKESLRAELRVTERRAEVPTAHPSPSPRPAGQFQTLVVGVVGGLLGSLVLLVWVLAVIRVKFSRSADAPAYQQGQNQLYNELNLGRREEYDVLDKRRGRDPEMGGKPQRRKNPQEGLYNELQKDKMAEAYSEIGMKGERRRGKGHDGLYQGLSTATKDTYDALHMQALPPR
T1 sequence (Q15116 25-288): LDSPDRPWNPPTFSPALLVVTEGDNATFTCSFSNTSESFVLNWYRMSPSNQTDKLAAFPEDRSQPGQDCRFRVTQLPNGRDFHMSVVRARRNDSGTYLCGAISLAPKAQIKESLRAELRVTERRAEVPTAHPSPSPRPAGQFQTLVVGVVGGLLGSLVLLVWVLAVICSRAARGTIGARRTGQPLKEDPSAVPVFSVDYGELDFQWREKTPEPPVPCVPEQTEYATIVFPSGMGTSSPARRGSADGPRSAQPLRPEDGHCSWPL

IL-2 release in HuT78/P3Z, EC50 [1]	IL-2 release in HuT78/P3Z, Max inhibition [1]	IL-2 release in HuT78/PD-1, EC50 [2]	IL-2 release in HuT78/PD-1, Top line [2]	IL-2 release in HuT78/P3Z, IC50 [3]	IL-2 release in HuT78/P3Z, Max inhibition [3]	EC50 [4]	Binder
0.3 µg/mL	98.8%						Fab hu317-1_Vh / hu317-1_Vκ (Fab, V domains shown) VH: QVQLQESGPGLVKPSETLSLTCTVSGFSLTSYGVHWIRQPPGKGLEWLGVIWAGGSTNYNPSLKSRLTISKDNSKSQVSLKMSSVTAADTAVYYCARAYGNYWYIDVWGQGTTVTVSS VL: DIVMTQSPDSLAVSLGERATINCKASQSVSNDVAWYQQKPGQPPKLLINYAFHRFTGVPDRFSGSGYGTDFTLTISSLQAEDVAVYYCHQAYSSPYTFGGGTKLEIK
0.38 µg/mL	98%						Fab hu317-2_V78F / hu317-1_Vκ (Fab, V domains shown) VH: QVQLQESGPGLVKPSETLSLTCTVSGFSLTSYGVHWIRQPPGKGLEWLGVIWAGGSTNYNPSLKSRLTISKDNSKSQFSLKMSSVTAADTAVYYCARAYGNYWYIDVWGQGTTVTVSS VL: DIVMTQSPDSLAVSLGERATINCKASQSVSNDVAWYQQKPGQPPKLLINYAFHRFTGVPDRFSGSGYGTDFTLTISSLQAEDVAVYYCHQAYSSPYTFGGGTKLEIK
0.48 µg/mL	96.5%						Fab hu317-2_K71V / hu317-1_Vκ (Fab, V domains shown) VH: QVQLQESGPGLVKPSETLSLTCTVSGFSLTSYGVHWIRQPPGKGLEWLGVIWAGGSTNYNPSLKSRLTISVDNSKSQVSLKMSSVTAADTAVYYCARAYGNYWYIDVWGQGTTVTVSS VL: DIVMTQSPDSLAVSLGERATINCKASQSVSNDVAWYQQKPGQPPKLLINYAFHRFTGVPDRFSGSGYGTDFTLTISSLQAEDVAVYYCHQAYSSPYTFGGGTKLEIK
0.35 µg/mL	79.7%						Fab hu317-3A / hu317-1_Vκ (Fab, V domains shown) VH: QVQLQESGPGLVKPSETLSLTCTVSGFSLTSYGVHWIRQPPGKGLEWIGVIWAGGSTNYNPSLKSRVTISVDTSKNQFSLKLSSVTAADTAVYYCARAYGNYWYIDVWGQGTTVTVSS VL: DIVMTQSPDSLAVSLGERATINCKASQSVSNDVAWYQQKPGQPPKLLINYAFHRFTGVPDRFSGSGYGTDFTLTISSLQAEDVAVYYCHQAYSSPYTFGGGTKLEIK
0.31 µg/mL	98.3%						Fab hu317-2_N73T / hu317-1_Vκ (Fab, V domains shown) VH: QVQLQESGPGLVKPSETLSLTCTVSGFSLTSYGVHWIRQPPGKGLEWLGVIWAGGSTNYNPSLKSRLTISKDTSKSQVSLKMSSVTAADTAVYYCARAYGNYWYIDVWGQGTTVTVSS VL: DIVMTQSPDSLAVSLGERATINCKASQSVSNDVAWYQQKPGQPPKLLINYAFHRFTGVPDRFSGSGYGTDFTLTISSLQAEDVAVYYCHQAYSSPYTFGGGTKLEIK
0.27 µg/mL	98.5%						Fab hu317-2_M82L / hu317-1_Vκ (Fab, V domains shown) VH: QVQLQESGPGLVKPSETLSLTCTVSGFSLTSYGVHWIRQPPGKGLEWLGVIWAGGSTNYNPSLKSRLTISKDNSKSQVSLKLSSVTAADTAVYYCARAYGNYWYIDVWGQGTTVTVSS VL: DIVMTQSPDSLAVSLGERATINCKASQSVSNDVAWYQQKPGQPPKLLINYAFHRFTGVPDRFSGSGYGTDFTLTISSLQAEDVAVYYCHQAYSSPYTFGGGTKLEIK
0.3 µg/mL	98.6%						Fab hu317-2_L67V / hu317-1_Vκ (Fab, V domains shown) VH: QVQLQESGPGLVKPSETLSLTCTVSGFSLTSYGVHWIRQPPGKGLEWLGVIWAGGSTNYNPSLKSRVTISKDNSKSQVSLKMSSVTAADTAVYYCARAYGNYWYIDVWGQGTTVTVSS VL: DIVMTQSPDSLAVSLGERATINCKASQSVSNDVAWYQQKPGQPPKLLINYAFHRFTGVPDRFSGSGYGTDFTLTISSLQAEDVAVYYCHQAYSSPYTFGGGTKLEIK
0.28 µg/mL	98.6%						Fab hu317-2_S76N / hu317-1_Vκ (Fab, V domains shown) VH: QVQLQESGPGLVKPSETLSLTCTVSGFSLTSYGVHWIRQPPGKGLEWLGVIWAGGSTNYNPSLKSRLTISKDNSKNQVSLKMSSVTAADTAVYYCARAYGNYWYIDVWGQGTTVTVSS VL: DIVMTQSPDSLAVSLGERATINCKASQSVSNDVAWYQQKPGQPPKLLINYAFHRFTGVPDRFSGSGYGTDFTLTISSLQAEDVAVYYCHQAYSSPYTFGGGTKLEIK
0.27 µg/mL	98.9%						Fab hu317-1_Vh / HU317-2_G100Q (Fab, V domains shown) VH: QVQLQESGPGLVKPSETLSLTCTVSGFSLTSYGVHWIRQPPGKGLEWLGVIWAGGSTNYNPSLKSRLTISKDNSKSQVSLKMSSVTAADTAVYYCARAYGNYWYIDVWGQGTTVTVSS VL: DIVMTQSPDSLAVSLGERATINCKASQSVSNDVAWYQQKPGQPPKLLINYAFHRFTGVPDRFSGSGYGTDFTLTISSLQAEDVAVYYCHQAYSSPYTFGQGTKLEIK
0.37 µg/mL	98.5%						Fab hu317-2_L48I / hu317-1_Vκ (Fab, V domains shown) VH: QVQLQESGPGLVKPSETLSLTCTVSGFSLTSYGVHWIRQPPGKGLEWIGVIWAGGSTNYNPSLKSRLTISKDNSKSQVSLKMSSVTAADTAVYYCARAYGNYWYIDVWGQGTTVTVSS VL: DIVMTQSPDSLAVSLGERATINCKASQSVSNDVAWYQQKPGQPPKLLINYAFHRFTGVPDRFSGSGYGTDFTLTISSLQAEDVAVYYCHQAYSSPYTFGGGTKLEIK
		0.259 µg/mL	1240 pg/mL	0.079 µg/mL	95.2%	0.132 µg/mL	hu326-2 E46K (antibody, V domains shown, mAb; constant regions not restated (hu326-1 is IgG2 / kappa); Back mutation to murine) VH: QVQLVQSGSELKKPGASVKVSCKASGYTFTNYGMNWVRQAPGQGLKWMGWINNNNGEPTYAQGFRGRFVFSLDTSASTAYLQISSLKTEDTAVYFCARDVMDYWGQGTTVTVSS VL: DIVLTQSPASLAVSPGQRATITCRASESVDNYGYSFMHWYQQKPGQPPKLLIYRASNLESGVPARFSGSGSRTDFTLTINPVEANDTANYYCQQSKEYPTFGGGTKVEIK
		0.112 µg/mL	1000 pg/mL	0.071 µg/mL	96.7%	0.102 µg/mL	hu326-2 A76V (antibody, V domains shown, mAb; constant regions not restated (hu326-1 is IgG2 / kappa); Forward mutation to human) VH: QVQLVQSGSELKKPGASVKVSCKASGYTFTNYGMNWVRQAPGQGLEWMGWINNNNGEPTYAQGFRGRFVFSLDTSVSTAYLQISSLKTEDTAVYFCARDVMDYWGQGTTVTVSS VL: DIVLTQSPASLAVSPGQRATITCRASESVDNYGYSFMHWYQQKPGQPPKLLIYRASNLESGVPARFSGSGSRTDFTLTINPVEANDTANYYCQQSKEYPTFGGGTKVEIK
		0.136 µg/mL	1020 pg/mL	0.075 µg/mL	96%	0.145 µg/mL	hu326-2 S9P (antibody, V domains shown, mAb; constant regions not restated (hu326-1 is IgG2 / kappa); Back mutation to murine) VH: QVQLVQSGPELKKPGASVKVSCKASGYTFTNYGMNWVRQAPGQGLEWMGWINNNNGEPTYAQGFRGRFVFSLDTSASTAYLQISSLKTEDTAVYFCARDVMDYWGQGTTVTVSS VL: DIVLTQSPASLAVSPGQRATITCRASESVDNYGYSFMHWYQQKPGQPPKLLIYRASNLESGVPARFSGSGSRTDFTLTINPVEANDTANYYCQQSKEYPTFGGGTKVEIK
		0.12 µg/mL	1070 pg/mL	0.064 µg/mL	96.4%	0.139 µg/mL	hu326-2 G63D (antibody, V domains shown, mAb; constant regions not restated (hu326-1 is IgG2 / kappa); Back mutation to murine) VH: QVQLVQSGSELKKPGASVKVSCKASGYTFTNYGMNWVRQAPGQGLEWMGWINNNNGEPTYAQDFRGRFVFSLDTSASTAYLQISSLKTEDTAVYFCARDVMDYWGQGTTVTVSS VL: DIVLTQSPASLAVSPGQRATITCRASESVDNYGYSFMHWYQQKPGQPPKLLIYRASNLESGVPARFSGSGSRTDFTLTINPVEANDTANYYCQQSKEYPTFGGGTKVEIK
				0.102 µg/mL	95.8%	0.098 µg/mL	hu326-2 T88N (antibody, V domains shown, mAb; constant regions not restated (hu326-1 is IgG2 / kappa); Back mutation to murine) VH: QVQLVQSGSELKKPGASVKVSCKASGYTFTNYGMNWVRQAPGQGLEWMGWINNNNGEPTYAQGFRGRFVFSLDTSASTAYLQISSLKNEDTAVYFCARDVMDYWGQGTTVTVSS VL: DIVLTQSPASLAVSPGQRATITCRASESVDNYGYSFMHWYQQKPGQPPKLLIYRASNLESGVPARFSGSGSRTDFTLTINPVEANDTANYYCQQSKEYPTFGGGTKVEIK
		0.126 µg/mL	1050 pg/mL	0.078 µg/mL	96.3%	0.155 µg/mL	hu326-2 A16E (antibody, V domains shown, mAb; constant regions not restated (hu326-1 is IgG2 / kappa); Back mutation to murine) VH: QVQLVQSGSELKKPGESVKVSCKASGYTFTNYGMNWVRQAPGQGLEWMGWINNNNGEPTYAQGFRGRFVFSLDTSASTAYLQISSLKTEDTAVYFCARDVMDYWGQGTTVTVSS VL: DIVLTQSPASLAVSPGQRATITCRASESVDNYGYSFMHWYQQKPGQPPKLLIYRASNLESGVPARFSGSGSRTDFTLTINPVEANDTANYYCQQSKEYPTFGGGTKVEIK
		0.135 µg/mL	1030 pg/mL	0.166 µg/mL	95.6%	0.097 µg/mL	hu326-2 F95Y (antibody, V domains shown, mAb; constant regions not restated (hu326-1 is IgG2 / kappa); Forward mutation to human) VH: QVQLVQSGSELKKPGASVKVSCKASGYTFTNYGMNWVRQAPGQGLEWMGWINNNNGEPTYAQGFRGRFVFSLDTSASTAYLQISSLKTEDTAVYYCARDVMDYWGQGTTVTVSS VL: DIVLTQSPASLAVSPGQRATITCRASESVDNYGYSFMHWYQQKPGQPPKLLIYRASNLESGVPARFSGSGSRTDFTLTINPVEANDTANYYCQQSKEYPTFGGGTKVEIK
		0.126 µg/mL	1020 pg/mL	0.06 µg/mL	96.5%	0.131 µg/mL	hu326-2 S84N (antibody, V domains shown, mAb; constant regions not restated (hu326-1 is IgG2 / kappa); Back mutation to murine) VH: QVQLVQSGSELKKPGASVKVSCKASGYTFTNYGMNWVRQAPGQGLEWMGWINNNNGEPTYAQGFRGRFVFSLDTSASTAYLQINSLKTEDTAVYFCARDVMDYWGQGTTVTVSS VL: DIVLTQSPASLAVSPGQRATITCRASESVDNYGYSFMHWYQQKPGQPPKLLIYRASNLESGVPARFSGSGSRTDFTLTINPVEANDTANYYCQQSKEYPTFGGGTKVEIK

Source: patent publication US8735553 (BEIGENE SWITZERLAND, dated 2014)
